From patent US5891673, “Lck binding protein” (Syntex (U.S.A.) Inc., dated 1999) come the findings set out here.

B1: GST-LckBP1-#4 (other)
chain: MEAPTTAYKKTTPIEAASSGARGLKAKFESLAEEKRKREEEEKAQQMARQQQERKAVVKMSREVQQPSMPVEEPAAPAQLPKKISSEVWPPAESHLPPESQPVRSRREYPVPSLPTRQSPL
B2: GST-LckBP1-#8 (other)
chain: AIALYDYQGEGSDELSFDPDDIITDIEMVDEGWWRGQCRGHFGLFPANYVKLL
B3: GST-LckBP1-#5 (other)
chain: MEAPTTAYKKTTPIEAASSGARGLKAKFESLAEEKRKREEEEKAQQMARQQQERKAVVKMSREVQQ

This assay deals with biotinylated GST (Schistosoma japonicum (Blood fluke), UniProt P08515 = GST, biotinylated (sites not given)). The experiment in a line: blot of GST-LckBP1 deletion mutants probed with biotinylated GST. From the text: DNA deletion fragments were obtained by PCR, and subcloned into the pGEX-2T vector (FIG. 7). The fusion proteins produced in *E. coli* were subjected to SDS-PAGE, transferred to a nitrocellulose filter, and probed with biotinylated GST or GST-Lck SH3 protein.
On to B1, for which the binding result was “no binding”. On to B2, for which the binding result was “no binding”.

Consider B3, for which the binding result is “no binding”.
